Article PMC10956426, “Lipid-Binding Regions within PKC-Related Serine/Threonine Protein Kinase N1 (PKN1) Required for Its Regulation” (Biochemistry, 2024)
Where “and” joins values, the source holds several entries; their conditions need not be identical. Equal entries are not always repeated.

Tests used:
[1] = target: the molecule itself; assay: SEC; 25 mL Sephacryl 200 (S-200) column, 20 mM phosphate buffer pH 7.4, 150 mM NaCl, 4 °C; refolded PKN1-(C2); calibrated column
[2] = target: the molecule itself; assay: MALDI-TOF mass spectrometry; sinapinic acid matrix in 70% acetonitrile, 0.05% TFA; positive ion-linear mode
[3] = target: the molecule itself; assay: SEC; Superdex-200 Increase (10/300 GL), 50 mM Tris-HCl pH 7.5, 150 mM NaCl, 0.075% Brij-35; native conditions

B1: PKN1-(C2)-(342–605) (domain or fragment)
chain: not shown
notes: PKC-related serine/threonine protein kinase N1 (PKN1), rat, residues 342-605 (C2-like domain and part of the hinge region), amplified by PCR from rat liver; Cloned between NdeI and XhoI of pET15b; this vector probably adds an N-terminal His tag with a thrombin site, and no cleavage is described; also called PKN1-(342–605); histidine-tagged PKN1 (residues 342–605)
[1]
  stoichiometry N: 3 and 4
[2]
  stoichiometry N: 2

B2: PKN1-(25–485) (domain or fragment)
chain: not shown
notes: PKC-related serine/threonine protein kinase N1 (PKN1), rat, residues 25-485 (HR1 and the AlphaFold-defined C2 region 310-473); The pET15b-PKN1-(25–485) plasmid was synthesized commercially; the vector probably adds an N-terminal His tag, and no cleavage is described; also called histidine-tagged PKN1 (residues 25–485)
[3]
  stoichiometry N: 3
